Assay results from patent publication US20160271157A1, “BETA-CATENIN” (UCL BUSINESS PLC, priority 2013, published 2016).

How the values were obtained:
[1] = tested on: β-catenin translocation to the nucleus; test: β-catenin immunocytochemistry and nuclear co-localization analysis, PC3; type: cell-based; settings: for Pearson coefficient of nuclear co-localization of β-catenin / expression of β-catenin (immunofluorescence), visible in the nucleus: PC3 cells; for Pearson coefficient of nuclear co-localization of β-catenin: Wnt 100 ng/ml vs control, p<0.001 Mann Whitney test; for expression of β-catenin (immunofluorescence), visible in the nucleus: Wnt ligand 100 ng/ml vs vehicle
Procedure: Immunostaining was performed in two different laboratories, independently with the experimenter blind to the identity of the treatment. Either cells used in FluoroDish, post [Ca^2+]i experiments using dyes (see above) or grown in 8 well chamber glass slides (Lab Tek II, Nunc) were used. For Wnt ligand treatment, the culture medium replaced with PBS (without calcium) at 37° C. The experiments were replicated for Wnt ligand or vehicle control as described for [Ca^2+]i measurements. Briefly, Wnt ligands were added and chamber slides incubated at 37° C. for up to 20 min. Chamber wells were washed 3× with 0.5 ml PBS and cells were fixed with 0.5 ml 4% formalin for 30 min at 4° C. Cells were washed 3× with ice cold PBS and stored in 0.5 ml PBS at 4° C. for immunostaining. In some experiments PC3 cells were treated with thaspsigargin as described above.
For immunostaining cells were washed twice for 5 minutes in TBST (20 mM Tris pH 7.4, 0.9% NaCl, 0.1% Tween 20, Sigma). Cells were then incubated in 20% normal goat serum (NGS)/TBST for 30 min at room temperature, the chambers were drained and cells were incubated with mouse anti-β-catenin (ab22656, Abcam, UK) at 1:500 dilution in NGS/TBST overnight at 4° C. Following two further 5 min washes in TBST sections were incubated in goat anti-mouse peroxidase fab (Abcam, UK) at 1:500 dilution for 30 min at room temperature. Following a further two 5 min washes in TBST cells were incubated with tyramide Cy3 (Perkin Elmer) for 10 min at room temperature. Sections were washed twice for 5 min in TBST before nuclear counterstaining with DAPI. After a final two 5 min washes, the chambers were removed and cover slip placed on slides using Permafluor (Thermo Shandon).
Fluorescence immunocytochemical staining for β-catenin expression in cell lines was imaged using Olympus Fluoview 1000 Confocal Microscope (Olympus KeyMed) mounted on an Olympus IX81 inverted microscope using a 20×0.7 NA or 40×1.0 NA dry objective with a zoom of ×3.4′,6-diamidino-2-phenylindole (DAPI, nuclear counterstain) was excited at 405 nm with an emission of 415-500 nm; Cy3 (β-catenin label) signal was excited at 561 nm with an emission spectrum between 570-670 nm. […] Z-stacks of at least 3 fields per sample were imaged and saved in Olympus FV (OIF or OIB) file format.
Nuclear co-localization of β-catenin was calculated by importing FV files for untreated, control or treated cells, into colocalization plugin of Fiji software (http://fiji.sc/Fiji) for Cy3 (β-catenin) and DAPI (nuclear) signals. Pearson co-relation of colocalization were tabulated for 25-90 cells (from 2-5 different passages of cells) using ROI analysis. Statistical significance between untreated and treated cells was calculated using Mann Whitney U test.

[2] = tested on: MCF7 breast cancer cell line; test: Live [Ca2+]i imaging after addition of Wnt ligand, MCF7; type: cell-based, human; settings: MCF7 cells
Procedure: The imaging protocol was developed in the inventor's laboratory and has been described in detail, elsewhere (Wang at al., (2010) PLoS ONE 5, e10456). Briefly, 100000-200000 PC3, MCF7, 253J or Cos 7 cells were plated on 35 mm FluoroDish (WPI) and grown for 48 h; calcium indicators Fluo-4 (Invitrogen) and FuraRed (Invitrogen) at 1 ng/ml were added to FluoroDish containing only 1 ml of culture medium and incubated for 15-20 min at 37° C. The culture medium was removed and washed (×2) and replaced with 1 ml PBS. Live cell calcium Imaging was performed on an Olympus FluoView FV 1000 confocal microscope (Olympus […]) equipped with a 20× dry objective (numerical aperture=0.75). Calcium indicators were excited with an argon laser line (488 nm) and emissions recorded in the green channel (500-560 nm) for Fluo-4 and red channel (600-700 nm) for FuraRed after addition of vehicle control (PBS) or Wnt X (30-600 ng/ml). Images were acquired every 1.1 or 2.2 seconds for up to 600-800s; image and data acquisition was performed using FluoView 1000 software (Olympus, UK). Fluorescent intensity was measured and data exported as a tab delimited file for further analysis using a spreadsheet. All imaging experiments were performed in duplicate; intracellular calcium at 100 ng/ml was measured in at least 3-12 different passages (passage numbers 25 to 37) of cell line for each Wnt ligand. Wnt 11 was tested in at least 5 different passages at 3 different concentrations. […] The measurements were exported as a tab delimited file into a spreadsheet for further analysis and Fluo4/Fura Red ratios were calculated. […] The time constants (rise, dwell and fall times) were calculated by first fitting the Fluo4/FuraRed ratio to a single Gaussian function (Origin Lab Corp., MA); a lower (10%) and upper (90%) amplitude thresholding method was then used to calculate the time constants (s). Statistical significance was calculated using Mann Whitney U test.

How did the “Pearson coefficient of nuclear co-localization of β-catenin” value [1] turn out when “Wnt10B: Recombinant Wnt peptide purchased from R&D systems” was run?
The value was “significant increase”.

And the “expression of β-catenin (immunofluorescence), visible in the nucleus” value [1]?
Its value is “visibly increased”.

What about the “[Ca2+]i release in response to Wnt ligand” value [2] of the same molecule?
The value was “activated [Ca^2+]i release”.

For `C/C=C(/C)C(=O)O[C@H]1C(C)=C2[C@H]([C@@H]1OC(=O)CCCCCCC)[C@@](C)(OC(C)=O)C[C@H](OC(=O)CCC)[C@@]1(O)[C@H]2OC(=O)[C@@]1(C)O` [thapsigargin, reference compound], which “translocation of β-catenin into the nucleus after inhibition of Wnt induced [Ca2+]i release” value ([1]; PC3 cells incubated with thapsigargin) is on record?
The value was “reduced the translocation of β-catenin into the nucleus”.

B1: Wnt9B: Recombinant Wnt peptide purchased from R&D systems (protein, UniProt O14905 23-357, looked up)
Protein Wnt-9b: SYFGLTGREVLTPFPGLGTAAAPAQGGAHLKQCDLLKLSRRQKQLCRREPGLAETLRDAAHLGLLECQFQFRHERWNCSLEGRMGLLKRGFKETAFLYAVSSAALTHTLARACSAGRMERCTCDDSPGLESRQAWQWGVCGDNLKYSTKFLSNFLGSKRGNKDLRARADAHNTHVGIKAVKSGLRTTCKCHGVSGSCAVRTCWKQLSPFRETGQVLKLRYDSAVKVSSATNEALGRLELWAPARQGSLTKGLAPRSGDLVYMEDSPSFCRPSKYSPGTAGRVCSREASCSSLCCGRGYDTQSRLVAFSCHCQVQWCCYVECQQCVQEELVYTCKH
What does the source list for B1?
Pearson coefficient of nuclear co-localization of β-catenin [1]: significant increase; expression of β-catenin (immunofluorescence), visible in the nucleus [1]: visibly increased; [Ca2+]i release in response to Wnt ligand [2]: activated [Ca^2+]i release

B2: Wnt5A: Recombinant Wnt peptide purchased from R&D systems (protein, UniProt P41221 62-380, looked up)
Protein Wnt-5a: IIGAQPLCSQLAGLSQGQKKLCHLYQDHMQYIGEGAKTGIKECQYQFRHRRWNCSTVDNTSVFGRVMQIGSRETAFTYAVSAAGVVNAMSRACREGELSTCGCSRAARPKDLPRDWLWGGCGDNIDYGYRFAKEFVDARERERIHAKGSYESARILMNLHNNEAGRRTVYNLADVACKCHGVSGSCSLKTCWLQLADFRKVGDALKEKYDSAAAMRLNSRGKLVQVNSRFNSPTTQDLVYIDPSPDYCVRNESTGSLGTQGRLCNKTSEGMDGCELMCCGRGYDQFKTVQTERCHCKFHWCCYVKCKKCTEIVDQFVCK
What does the source list for B2?
Pearson coefficient of nuclear co-localization of β-catenin [1]: significant increase; expression of β-catenin (immunofluorescence), visible in the nucleus [1]: visibly increased; [Ca2+]i release in response to Wnt ligand [2]: activated [Ca^2+]i release
